Assay results from article PMC2768864.

Molecular target: Ixodes ricinus contact phase inhibitor (Ir-CPI) (Ixodes ricinus) (UniProt Q9GP15)
Assay: SPR

Chain of Ixodes ricinus contact phase inhibitor (Ir-CPI) (Ixodes ricinus) (Q9GP15 20-86): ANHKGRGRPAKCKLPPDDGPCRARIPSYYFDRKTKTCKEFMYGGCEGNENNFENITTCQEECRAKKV

plasmin (enzyme)
Ka: 3.3e+08 M⁻¹ | ka1 (two-state model, formation of AB): 900000 M⁻¹ s⁻¹ | ka2 (two-state model, forward conformation change): 0.00582 s⁻¹ | kd1 (two-state model, dissociation of AB): 0.00535 s⁻¹ | kd2 (two-state model, backward conformation change): 0.00614 s⁻¹
